The nanobody polyreactivity screen of Harvey et al. (2022)

Assay: yeast display, Sf9 membrane polyspecificity reagent, FACS + sequencing; frameworks hold sequencing errors
How it was run: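 Using colony PCR, genes from sorted yeast display clones were amplified, then sequenced on MiSeq at 2 × 250 and filtered by CDR length. The clones had been stained with 10% biotinylated, detergent-solubilized Sf9 membrane reagent for 1 hour at 4 °C and sorted by FACS into low and high (top ~1%) gates on anti-HA and streptavidin fluorescence. Polyreactivity labels come from the gate of origin.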

| Sequence | polyreactivity (PSR sort gate) |
| --- | --- |
| QVQLVESGGGLVQAGGSLRLSCAASGRTFIYYDKGWYRQAPGKERDLVAAIRQRGDNTYYADSVKGSFTISRDNAKNTVYLKMKSLKPDDTAVYFCAAVNYLSYRYGYSWSYPGGGYWGQGTQVTVSS | high polyreactivity |
| QVQLVESGGGLVQAGGSLRLSCAASGSTFTWNVMGWYRQAPAKERELVASITSGDSTYADSVKGRFTISRDNAKNTVYLQMNSLKPEDTAVYYCNVGYDQEKYGYWGQGTQVTVSS | low polyreactivity |
| QVQLVESGGGFVQAGGSLRLSCAASGSIIKRNAMGWYRQAPGKERELVASISSGGSTKYADSVKGRFTLSRDNAKNTVYLQMNSLKPEDTAVYYCAKRSSQTRRAYDYWGQGTQVTVSS | low polyreactivity |
| QVQLVESGGGLVQAGGSLRLSCAASGRTFRYYAMGWYRKAPGKERELVASIRGGGGTNYADSVKGRFTISRDNAKNTVYLQMNSLKPEDTAVYFCAASVGYSRVWLDYWGQGTQVTVSS | high polyreactivity |
| QVQLVESGGGLVQAGGSLRLSCAASGSTFVYNAMGSYRQAPGKEREFVAAISGSGGSTYYADSVKGRFTISRDNAKNTVYLQMNSLKPEDTAVYYCATAGRYGLYRTYPYRSKYDYWGQGTQVTVSS | high polyreactivity |
| QFQLVESGGGLVQAGGSLRLSCAASGFIFGGNVMGWYRQAPGKERELVAAITSSATTYYADSVKGRFTISRDNAKNTVYLQMNSLKREDTAVYYCAADTWTIVDYGYWGQGTQVTVSS | low polyreactivity |
| QVQLVESGGGLVQAGGSLRLRCGASGFIFEHYAMGWYRPAPAKERDFVAAISGSGGNKYYADSVKGRFTISRDNAKNTVYLQMNSLKPEDTAVYSCNKVDGTTLDDHYMDYWGQGTQVTVSS | low polyreactivity |
| QVQLVESGGGLVQAGGSLRLSCAASGITFLYYAMGWYRQAPGTERELVAAITSSGGRTYYADSVKGRFTISRDNAKNTVCLQMNSLKPEDTAVYYCAADSRTYNGGYYWGQGTQVTVSS | high polyreactivity |
| QVQLVESGGGLVQAGGRHRLTCAASGRTVGRYAMGWYRQAPGKEREFVAAISNRVGRTYYADSVKGRFTISRDNAKNTVYLQMNSLKPEDTAVYYCAADTAHVNVNYWGQGTQVTVSS | high polyreactivity |
| QVQLVESGGGLVQAGGSLRLSCAASGGIFSVYGMGWYRQAPGKERELVAVIRRGGSTYYADSVKGRFTISRDNAKNTVYLQMNSLKPEDTAVYYCATDYPGYFVDGNYYWGQGTQVTVSS | low polyreactivity |
| QVQLVESGGGLVQAGGSLRLSCAASGITFVRYAMGWYRQAPGKEREFVAAINSIVGRTYYADSVKGRFTISRDNAKNTVYLQMNSLKPEDTAVYYCAADSNVRYGMDYWGQGTQVTVSS | low polyreactivity |
| QVQLVESGGGLVQAGGSLRLSCAPSGGTFALYAMGWYRQAPGKERELVASISFNGGSTYYADSVKGRFTISRDNAKNTVYLQMNSLKPEDTAVYYCNTGYQWGVYESQTAVEDYWGQGTQVTVSS | low polyreactivity |
| QVQLVESGGGLVQAGGSLRLSCAASGSIFYSNAMGWYRQAPGKERELVAAISGSGGTTYYADSVKGRFTISRDNAKNTVYIQMNSLKPEDTAVYYCAAKPRVRVRLSDYWGQGTQVTVSS | high polyreactivity |
| QVQLVESGGGLVQAGGSLRLSCAASGFTFQPNAMGWYRQAPGKERELVAAITWSTGRTYYADSVKGRFTISRDNAKNTVYLQMNSLKPEDTAVYYCNKRKNLLHSFEYDYWGQGTQVTVSS | low polyreactivity |
| QVQLVESGGGLVQAGGSLLLSCAASGFTFLWYDMGWYRQSPGKERELVAAIDASDGSTYYADSVKGRFTISRDNAKNTVYLQMNSLKPEDTAVYYCAVAAGYFGKWTYYYWGQGTQVTVSS | high polyreactivity |
| QVQLVESGGRLVQAGGSLRLSCAASGRTFGYYAKGLSRQAQGKEREFVAAISFRTTSTYYADSVKGRFTISRDNAKNTVYLQMISLKPEDTAVYYCNVVVKGAWDYYPYDYWGQGPQVTVSS | high polyreactivity |

| Sequence | polyreactivity (PSR sort gate) |
| --- | --- |
| QVQLVESGGGLVQAGGSLRLSCAASGFIFGFNAMGWYRQAPGKERELVAVFNRSGSRTYYADSVKGRFTISRDNAKNTVYLQMNSLKPEDTAVYYCNAYPRYQYWGQGTLVTVSS | high polyreactivity |
| QVQLVESGGGLVQAGGSLRLSCAASGRTFEQYAMGWYRQAPGKERELVAAISKRGGSTYYADSVKGRFTISRDNAKNTVYLQMNSLKPEDTAVYYGATEKASNYFYRFDYWGQGTQVTVSS | low polyreactivity |
| QVQLVESGGGLVQAGGSLRLSSAASVSTVTPYAMGWYRQAPGKERELVAVISESGGSTYYADSVKGRFTISRDNAKNTVYLQMNSLKPEDTAVYYCAKASYPEVLYYFFRGYTFDSWGQGTQVTVSS | low polyreactivity |
| QLQPVESGGGLVQAGGSLRLSSAASGSTFVSYDRGWYRQAPGKERALVAVITSGGSTNYADSVKGRFTISRDNAKNTVYLQMNSLKPEETAVYYCAKRRYGRSGGSRYHYWGQGTQVTVSS | high polyreactivity |
| QVQLVESWGGLVQAGGSLSLSCAASGRIIARNAMGWYRQAPGKEREFVAAISFSDGSTYYADSVKGRFTISRDNAKNTVYLQMNSLKPEDSAVYYCNKGASPDDYDYWGQGTQVTVSS | low polyreactivity |
| QVQLVESGGGLVQAGGSLRLSCAASGSIFYSYAKGSYLQAPGKERELVADITFSGVSTYYADSVKGRFTISRDNAKNTVYLQMKSLKTEDTAVYYGAADGVSRWYLYRWYDYDYWGQGTQVTVSS | low polyreactivity |
| QVQLVESGGGLVQAGGSLRLICAASGRIFGIYAMGWYRQAPGKERELVARITGGGSTNYADSVKGRFTISRDNPKNTVYLQMNSLNPEDTAVYYCAANVRRIVGNITRYDYWGQGTQVTVSS | low polyreactivity |
| QVQLVVSGGGLVQAGGSLRLSCAASGSMLYKYAMGWYRQPPGKEREFVAAISSSGGITYYADSVKGRFTISRDNAKNTVYLQMNSLKPEDTAVYYCAARTRSQFGHGYWGQGTQVTVSS | high polyreactivity |
| QVQLVESGGGLVQAGGSLRLSCAASGRTFWRNAMGWYRQAPWKERELVAAISRSGDSTRYADSVKGRFTISRDNAKYSVYLQRTSLKPEATAVYYCNKLGTGVYEMDYWGQGTKVTVSS | high polyreactivity |
| QVQLQESGGGLVQAGGSLRLSCAASGTIFRISDMGSYRQAPGKEREFVAAITYGANTYYADSGKGRFTISRDNAKNTVYLQMNSLIPEDTAVYYCAVPPVKETILDYWGQGTQVTVSC | low polyreactivity |
| QVQLLESGGGLVQAGGSLRLSCAASGRILTGYAMGWYRQAPGKERELFSSINWRGGSTYYADSVKGRFTISRDNAKNTVYLQMISLIPEDTAVYYCAARVLVTGTYYTIYDYWGQCTQVTVSS | high polyreactivity |
| QVQLVESGGGLVQAGGSLRLSCAASGLIFQVYTMGWYRQAPGKERELVAAISWDAGSTYYADSVKGRFTISRDNAKNTVYLLMNSLKPEDTAVYYCATTQYTTYGRRYYWGQGTQVTVSS | high polyreactivity |
| QVQLVESGAGLVQAGGSLRLSCAASGSTFAINAMGWYRQAPGKERELVAAISSRGSTNYADSVKGRFTISRDNAKNTVYLQMNSLKPEDTAVYYCAADRVWGTPQAYVPSQFDYWGQGTQVTVSS | low polyreactivity |
| QVQLVESGGGLVQAGGSLRLISAASGITFRYYVMGWYRHAPGKERELVASISWGGGSTYYADSVKGRFTISRDNAKNTVYLHMNSLIPEDTAVYYCAAEYWVPAVKFGYEFWGQGSQVTVSS | high polyreactivity |
| QVQLVESGGGLVQAGGSLRLSCAASGSTFLVNGMGWYRQAPGKERELVAAISSGDGSTYYADSVKGRFTISRDNAKNTVYLQMNSLKPEDTAVYYCAVDCWWTGYDYWGQGTQVTVSS | low polyreactivity |
| QVQLVESGGGLVQAGGSLRLSCAASGIILGRYAMGWYRQAPGKERELVAAITASGGRTYYADSVKWRFTISRDNAKNTVYLQMNSLKPEDTAVYYCNTVYWGYKSHYDYWGQGTQVTVSS | high polyreactivity |
